From paper PMC5686067 come the findings set out here.

Assay [1] concerns the target sNlpI (soluble NlpI without its lipoprotein signal peptide) (E. coli) (UniProt P0AFB1). The assay is described as follows: SEC-MALS; ENrich SEC 650 column, 20 mM Tris-HCl pH 7.5, 200 mM NaCl, 2 mM DTT, 0.02% NaN3, 240-360 µg protein injected.
Assay [2] has the same target. The assay can be described thus: AUC; sedimentation velocity, absorbance optics, 20 mM Tris-HCl pH 8.0, 100 mM NaCl, 2 mM DTT, 20 °C, c(s) model in Sedfit.
For assay [3], the target named is Prc (full-length, C-terminal His-tag) (E. coli) (UniProt P23865).
In assay [4] the target is sMepS-6×His-C (soluble MepS without its lipoprotein signal peptide, C-terminal His-tag) (E. coli) (UniProt P0AFV4). The assay is described as follows: ITC; iTC200, 20 °C, 20 mM HEPES pH 7.5, 300 mM NaCl, 2 mM 2-mercaptoethanol; 23 µM sMepS or Prc in the cell, 230 µM sNlpI (alone or with equimolar Prc) in the syringe; one binding site model.
Chain of sMepS-6×His-C (soluble MepS without its lipoprotein signal peptide, C-terminal His-tag) (E. coli) (P0AFV4 28-188 limits assumed): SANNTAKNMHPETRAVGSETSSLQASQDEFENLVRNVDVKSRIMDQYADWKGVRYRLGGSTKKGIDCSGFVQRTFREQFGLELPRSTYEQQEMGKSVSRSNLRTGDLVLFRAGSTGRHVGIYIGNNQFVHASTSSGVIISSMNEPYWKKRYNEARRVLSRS

Chain of sNlpI (soluble NlpI without its lipoprotein signal peptide) (E. coli) (P0AFB1 20-294): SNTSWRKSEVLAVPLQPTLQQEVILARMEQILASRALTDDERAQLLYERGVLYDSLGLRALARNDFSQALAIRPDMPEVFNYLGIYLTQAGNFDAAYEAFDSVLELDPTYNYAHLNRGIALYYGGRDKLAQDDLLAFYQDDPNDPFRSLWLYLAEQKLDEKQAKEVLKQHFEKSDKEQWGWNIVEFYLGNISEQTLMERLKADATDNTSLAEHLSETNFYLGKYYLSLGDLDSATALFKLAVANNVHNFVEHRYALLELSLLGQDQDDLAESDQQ
Chain of Prc (full-length, C-terminal His-tag) (E. coli) (P23865 23-682 limits assumed): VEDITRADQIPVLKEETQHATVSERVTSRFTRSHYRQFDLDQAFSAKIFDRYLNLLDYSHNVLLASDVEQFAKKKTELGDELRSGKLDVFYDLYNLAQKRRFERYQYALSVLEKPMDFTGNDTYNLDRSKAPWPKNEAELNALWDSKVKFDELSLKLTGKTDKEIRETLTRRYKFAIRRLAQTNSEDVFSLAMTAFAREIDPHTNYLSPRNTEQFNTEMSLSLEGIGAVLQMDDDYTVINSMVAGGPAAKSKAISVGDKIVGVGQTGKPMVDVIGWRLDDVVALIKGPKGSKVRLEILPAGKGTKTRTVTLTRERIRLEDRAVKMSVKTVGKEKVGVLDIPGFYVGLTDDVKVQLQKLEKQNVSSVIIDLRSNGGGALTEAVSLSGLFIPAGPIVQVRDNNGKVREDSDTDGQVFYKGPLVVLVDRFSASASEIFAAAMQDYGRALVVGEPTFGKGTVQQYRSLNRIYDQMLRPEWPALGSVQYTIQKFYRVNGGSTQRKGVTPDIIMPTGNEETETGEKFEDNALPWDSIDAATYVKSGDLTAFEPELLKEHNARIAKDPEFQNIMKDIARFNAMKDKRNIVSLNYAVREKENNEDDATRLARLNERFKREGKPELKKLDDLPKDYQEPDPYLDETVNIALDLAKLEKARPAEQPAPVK

“Prc (full-length, C-terminal His-tag) (from UniProt P23865 23-682) (enzyme)”: the stoichiometry N (Prc per sNlpI (printed 2:2)) in assay [1] and in assay [2] was 1 each time. Substance “sNlpI-QM (D113A/E117A/D120/E124A quadruple mutant) (from UniProt P0AFB1 20-294) (natural protein)” showed a specific degradation activity of Prc against MepS with sNlpI-QM (nmol min^−1 per mg) in assay [3] of 0.98.

With “sNlpI-Prc complex (from UniProt P0AFB1 20-294; P23865 23-682)”, the dissociation constant Kd in assay [4] was 2090 nM. This counts as single-digit micromolar.
